The results in this text go back to patent US20050048594.

The target of the data set is T1, peptide ARKRERAF(3-CF3)SFGHHA.
T1 chain: ARKRERAFSFGHHA

B1: serine/threonine p21-activated kinase PAK4 (protein)
chain: SPQREPQRVSHEQFRAALQLVVDPGDPRSYLDNFIKIGEGSTGIVCIATVRSSGKLVAVKKMDLRKQQRRELLFNEVVIMRDYQHENVVEMYNSYLVGDELWVVMEFLEGGALTDIVTHTRMNEEQIAAVCLAVLQALSVLHAQGVIHRDIKSDSILLTHDGRVKLSDFGFCAQVSKEVPRRKSLVGTPYWMAPELISRLPYGPEVDIWSLGIMVIEMVDGEPPYFNEPPLKAMKMIRDNLPPRLKNLHKVSPSLKGFLDRLLVRDPAQRATAAELLKHPFLAKAGPPASIVPLMRQNRTR
As for B1, the “phosphorylation of the peptide followed by 19F NMR (150 nM PAK4)” value is recorded as “the reaction in the presence of PAK4 results in the appearance of a 19F signal with a chemical shift similar to the shift of a phosphorylated peptide” and the “speed of the enzymatic reaction relative to AKT1” value is “The speed of the enzymatic reaction of PAK4 is only 1/22 of the speed of AKT1”.
